Results on one molecule are retold here after publication PMC2715225 (Nucleic Acids Research, 2009).

The test addresses T1, His6-tagged human PSF (human, UniProt P23246 1-707).
T1 sequence (looked up): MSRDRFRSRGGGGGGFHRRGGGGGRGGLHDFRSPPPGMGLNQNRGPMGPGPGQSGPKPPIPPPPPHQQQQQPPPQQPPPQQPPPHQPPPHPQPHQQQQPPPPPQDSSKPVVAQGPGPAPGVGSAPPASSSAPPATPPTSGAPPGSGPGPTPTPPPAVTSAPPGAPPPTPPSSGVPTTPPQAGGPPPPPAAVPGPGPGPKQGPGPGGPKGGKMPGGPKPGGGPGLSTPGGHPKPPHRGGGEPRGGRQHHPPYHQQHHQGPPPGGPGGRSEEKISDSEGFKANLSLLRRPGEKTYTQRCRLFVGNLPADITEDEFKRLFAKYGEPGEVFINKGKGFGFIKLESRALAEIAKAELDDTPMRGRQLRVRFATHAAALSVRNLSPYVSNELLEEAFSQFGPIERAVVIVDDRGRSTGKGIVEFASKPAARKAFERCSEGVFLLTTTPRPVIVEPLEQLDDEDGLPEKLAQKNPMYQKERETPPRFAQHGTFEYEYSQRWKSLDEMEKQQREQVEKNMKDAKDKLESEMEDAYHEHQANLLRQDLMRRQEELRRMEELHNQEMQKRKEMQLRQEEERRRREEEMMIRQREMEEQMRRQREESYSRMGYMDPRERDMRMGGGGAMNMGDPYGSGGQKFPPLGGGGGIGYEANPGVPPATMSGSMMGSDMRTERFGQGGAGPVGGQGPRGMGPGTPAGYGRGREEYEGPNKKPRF
Kind of test: pull-down.

B1: Human RAD51 without His6 tag (natural protein, UniProt Q06609 1-339, looked up)
chain: MAMQMQLEANADTSVEEESFGPQPISRLEQCGINANDVKKLEEAGFHTVEAVAYAPKKELINIKGISEAKADKILAEAAKLVPMGFTTATEFHQRRSEIIQITTGSKELDKLLQGGIETGSITEMFGEFRTGKTQICHTLAVTCQLPIDRGGGEGKAMYIDTEGTFRPERLLAVAERYGLSGSDVLDNVAYARAFNTDHQTQLLYQASAMMVESRYALLIVDSATALYRTDYSGRGELSARQMHLARFLRMLLRLADEFGVAVVITNQVVAQVDGAAMFAADPKKPIGGNIIAHASTTRLYLRKGRGETRICKIYDSPCLPEAEAMFAINADGVGDAKD
As for B1, the “stoichiometry N” value is ~1 PSF:RAD51.
